One experiment deals with streptavidin (Streptomyces avidinii, UniProt P22629). Particulars: biotin mimicking peptide binding streptavidin; read-out: affinity; cited from earlier work.
In experiment [1] the test system is SupT1 cells engineered to express CD33. The experiment in a line: Activation of BW5 T-cells expressing TetCAR challenged with SupT1 cells engineered to express CD33. It counts as cell-based. The conditions noted are these: increasing concentrations of tetracycline. An excerpt: FIG. 7—Function of the initial TetR construct in comparison with control. (a) TetCAR was expressed in BW5 T-cells. These T-cells were challenged with wild-type SupT1 cells or SupT1 cells engineered to express CD33 in the absence of tetracycline or in the presence of increasing concentrations of tetracycline. […] (b) Control TetCAR which lacks the TiP domain was transduced into BW5. Once again, these T-cells were challenged with wild-type SupT1 cells or SupT1 cells engineered to express CD33 in the absence or in the presence of increasing concentration of Tetracycline.
Signalling through the signalling component may be determined by a variety of methods known in the art. […] Functional readouts, such as clonal expansion of T cells, upregulation of activation markers on the cell surface, differentiation into effector cells and induction of cytotoxicity or cytokine secretion may also be utilised. As an illustration, in the present examples the inventors determined levels of interleukin-2 (IL-2) produced by T-cells expressing a receptor component and signalling component of the CAR system according to the present invention upon binding of antigen to the receptor component in the presence of varying concentrations of an agent. […]

Sequence of streptavidin (P22629 37-163): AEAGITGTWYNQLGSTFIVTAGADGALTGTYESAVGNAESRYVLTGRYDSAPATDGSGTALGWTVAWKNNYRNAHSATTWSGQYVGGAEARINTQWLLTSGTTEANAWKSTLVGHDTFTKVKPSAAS

On to “Biotin mimicking peptide CHPQGPPC (SEQ ID NO: 9) (Biotin mimicking peptide, ccstreptag)”, for which the Kd in the experiment with streptavidin is 230 nM.
“Biotin mimicking peptide DVEAWLDERVPLVET (SEQ ID NO: 4) (Biotin mimicking peptide, long nanotag)”: the Kd in the experiment with streptavidin was 3.6 nM.
`CN(C)[C@@H]1C(O)=C(C(N)=O)C(=O)[C@@]2(O)C(O)=C3C(=O)c4c(O)cccc4[C@@](C)(O)[C@H]3C[C@@H]12` [tetracycline]: the “concentration of tetracycline at which activation is fully inhibited” value in experiment [1] came to 100 nM.
Consider “Biotin mimicking peptide WSHPQFEK (SEQ ID NO: 7) [streptag II]”, for which the Kd with streptavidin is 72000 nM.
Turning to “Biotin mimicking peptide DVEAWLGAR (SEQ ID NO: 5) (Biotin mimicking peptide, short nanotag)”, the Kd with streptavidin was 17 nM.

These data come from patent US10654927B2, “Signalling system” (UCL BUSINESS PLC, priority 2014, dated 2020).
